Numbering of substitutions follows the chain as printed.
Key:
Test in all cases: SPR, KD relative to WT C2;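 note: biacore SPR at 37 °C, anti-C2 mAbs captured via immobilised goat anti-human IgG, C2 alanine or serine surface mutants as analytes, 1:1 model fitted, double-referenced sensograms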
human C2 P718A = molecular target: T1, human C2 P718A (human, UniProt P06681 21-752)
T1 sequence: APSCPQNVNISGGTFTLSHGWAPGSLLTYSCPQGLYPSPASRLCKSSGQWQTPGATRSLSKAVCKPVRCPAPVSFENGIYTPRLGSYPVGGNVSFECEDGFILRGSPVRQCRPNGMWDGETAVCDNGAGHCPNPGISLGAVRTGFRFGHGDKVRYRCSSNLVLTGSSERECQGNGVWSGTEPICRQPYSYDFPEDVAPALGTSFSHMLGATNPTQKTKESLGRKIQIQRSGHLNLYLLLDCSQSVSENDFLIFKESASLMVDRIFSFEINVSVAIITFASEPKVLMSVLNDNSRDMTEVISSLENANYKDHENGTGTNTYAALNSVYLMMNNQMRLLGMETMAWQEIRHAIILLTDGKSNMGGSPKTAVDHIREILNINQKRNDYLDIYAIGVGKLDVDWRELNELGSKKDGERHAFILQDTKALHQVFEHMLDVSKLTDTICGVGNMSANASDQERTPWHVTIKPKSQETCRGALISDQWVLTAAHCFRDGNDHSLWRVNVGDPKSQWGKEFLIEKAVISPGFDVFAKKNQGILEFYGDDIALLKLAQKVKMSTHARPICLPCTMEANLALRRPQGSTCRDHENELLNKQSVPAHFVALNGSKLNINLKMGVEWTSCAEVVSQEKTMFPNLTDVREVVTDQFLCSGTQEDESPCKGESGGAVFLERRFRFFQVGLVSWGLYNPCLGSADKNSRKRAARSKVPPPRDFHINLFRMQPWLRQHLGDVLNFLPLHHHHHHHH

human C2 N325A = molecular target: T2, human C2 N325A (human, UniProt P06681 21-752)
T2 sequence: T1 sequence with N305A, A698P

human C2 A444S = molecular target: T3, human C2 A444S (human, UniProt P06681 21-752)
T3 sequence: T1 sequence with A424S, A698P

human C2 V448A = molecular target: T4, human C2 V448A (human, UniProt P06681 21-752)
T4 sequence: T1 sequence with V428A, A698P

B1: RF16-226 (antibody, human IgG4 S228P, lambda)
heavy: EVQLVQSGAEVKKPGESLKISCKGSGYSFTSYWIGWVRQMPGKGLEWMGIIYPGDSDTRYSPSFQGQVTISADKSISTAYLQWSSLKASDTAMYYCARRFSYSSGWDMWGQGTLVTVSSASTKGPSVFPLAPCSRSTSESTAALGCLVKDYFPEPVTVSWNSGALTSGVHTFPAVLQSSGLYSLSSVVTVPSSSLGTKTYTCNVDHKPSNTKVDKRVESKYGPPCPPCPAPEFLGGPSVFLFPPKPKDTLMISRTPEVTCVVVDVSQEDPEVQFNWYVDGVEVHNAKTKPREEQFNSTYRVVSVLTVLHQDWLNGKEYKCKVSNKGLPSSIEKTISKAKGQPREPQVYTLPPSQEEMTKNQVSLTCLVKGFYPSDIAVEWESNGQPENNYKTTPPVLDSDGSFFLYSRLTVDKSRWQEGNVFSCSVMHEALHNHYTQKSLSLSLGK
light: SYELTQPPSVSVSPGQTARITCSGDALTSKYVAWYQQKSGLAPLLVIYEDTRRPSGIPAKFSGSSSGSVATLTISGAHGDDEADYYCYSTDASGHQRVFGGGTKLTVLSQPKAAPSVTLFPPSSEELQANKATLVCLISDFYPGAVTVAWKADGSPVKAGVETTKPSKQSNNKYAASSYLSLTPEQWKSHRSYSCQVTHEGSTVEKTVAPTECS
notes: pH-dependent anti-C2 antibody from a phage display library; also called WT
Q: B1 was tested. Which Fold diff (human C2 P718A) did it give?
A: Its Fold diff is 2 fold.

Q: What about the Fold diff (human C2 N325A) of the same binder?
A: The Fold diff was 5 fold.

Q: And the Fold diff (human C2 A444S)?
A: The Fold diff was 2 fold.

Q: What about the Fold diff (human C2 V448A) of the same binder?
A: Its Fold diff is 0 fold.

From patent publication US20220332804A1 (CSL INNOVATION, published 2022)
